Target: T1, PD-1H (Homo sapiens, UniProt Q9H7M9)
T1 construct: Flag (N); expressed in transfected cells; host or cells: HEK293
Assay: Co-immunoprecipitation of c-myc tagged MMP-13 constructs with Flag-PD-1H in HEK293 cells
Format: binding
Details: HEK293 cells co-transfected with Flag-PD-1H; IP with anti-c-myc; FIG. 5A
Procedure: To identify key binding domains between PD-1H and MMP-13, a series of truncated deletion mutants was tested. The MMP-13 zymogen has a pro-peptide domain (aa 20-103) that maintains latency, a catalytic domain (aa 103-268) containing the catalytic zinc-binding motif, and a hinge linker region (aa 269-280) that connects the catalytic domain region with the C-terminal hemopexin domain (aa 281-471).
WCL were analyzed as input. […].

B1: Hem: MMP-13 truncation mutant containing the hemopexin domain (delta aa 37-267) (protein)
chain: LPLPSGGDEDDLSEEDLPGDEDPNPKHPKTPDKCDPSLSLDAITSLRGETMIFKDRFFWRLHPQQVDAELFLTKSFWPELPNRIDAAYEHPSHDLIFIFRGRKFWALNGYDILEGYPKKISELGLPKEVKKISAAVHFEDTGKTLLFSGNQVWRYDDTNHIMDKDYPRLIEEDFPGIGDKVDAVYEKNGYIYFFNGPIQFEYSIWSNRIVRVMPANSILWC
modifications: left off: small tags and cut ends
  binding to PD-1H (co-IP): retained only a fraction of the wild-type binding activity
